For one substance, ELISA IgG2a signal results are on record in patent US20100291145A1.

For the test, the target named is human melanoma gp100(46-58) peptide, Ac-…-NH2 (human). Briefly: ELISA, gp100(46-58) peptide on plate; naive DR4-IE Tg serum; anti-IgG2a detection. Background: An ELISA detects its analyte on a solid surface through an enzyme-linked reagent.

With “serum of naive DR4-IE Tg mice (control of Tables 23.9 and 23.10) (antibody)”, the ELISA IgG2a signal at serum dilution 1:20 amounted to 0.063, the ELISA IgG2a signal at serum dilution 1:60 was found to be 0.058, the ELISA IgG2a signal at serum dilution 1:180 is 0.056 and the ELISA IgG2a signal at serum dilution 1:540 stood at 0.055.
